According to paper doi:10.1101/2023.02.13.528223:

Molecular target: DNMT3A^R736S (human) (UniProt Q9Y6K1)
Assay: SEC + other: negative-stain EM

stoichiometry N: 2
Substance: DNMT3A^R736S (from UniProt Q9Y6K1 1-912) (enzyme)
